Assay results published in patent US20240239875A1 (published 2024).

What was measured:
Test in all cases: ELISA
[1] = target: SARS-CoV-2 prefusion stabilized trimer protein (WIV02 isolate spike protein) (UniProt P0DTC2 14-1213)
HCoV229E spike protein = target: T1, HCoV229E spike protein (HCoV-229E, UniProt P15423 17-1103)
T1 chain: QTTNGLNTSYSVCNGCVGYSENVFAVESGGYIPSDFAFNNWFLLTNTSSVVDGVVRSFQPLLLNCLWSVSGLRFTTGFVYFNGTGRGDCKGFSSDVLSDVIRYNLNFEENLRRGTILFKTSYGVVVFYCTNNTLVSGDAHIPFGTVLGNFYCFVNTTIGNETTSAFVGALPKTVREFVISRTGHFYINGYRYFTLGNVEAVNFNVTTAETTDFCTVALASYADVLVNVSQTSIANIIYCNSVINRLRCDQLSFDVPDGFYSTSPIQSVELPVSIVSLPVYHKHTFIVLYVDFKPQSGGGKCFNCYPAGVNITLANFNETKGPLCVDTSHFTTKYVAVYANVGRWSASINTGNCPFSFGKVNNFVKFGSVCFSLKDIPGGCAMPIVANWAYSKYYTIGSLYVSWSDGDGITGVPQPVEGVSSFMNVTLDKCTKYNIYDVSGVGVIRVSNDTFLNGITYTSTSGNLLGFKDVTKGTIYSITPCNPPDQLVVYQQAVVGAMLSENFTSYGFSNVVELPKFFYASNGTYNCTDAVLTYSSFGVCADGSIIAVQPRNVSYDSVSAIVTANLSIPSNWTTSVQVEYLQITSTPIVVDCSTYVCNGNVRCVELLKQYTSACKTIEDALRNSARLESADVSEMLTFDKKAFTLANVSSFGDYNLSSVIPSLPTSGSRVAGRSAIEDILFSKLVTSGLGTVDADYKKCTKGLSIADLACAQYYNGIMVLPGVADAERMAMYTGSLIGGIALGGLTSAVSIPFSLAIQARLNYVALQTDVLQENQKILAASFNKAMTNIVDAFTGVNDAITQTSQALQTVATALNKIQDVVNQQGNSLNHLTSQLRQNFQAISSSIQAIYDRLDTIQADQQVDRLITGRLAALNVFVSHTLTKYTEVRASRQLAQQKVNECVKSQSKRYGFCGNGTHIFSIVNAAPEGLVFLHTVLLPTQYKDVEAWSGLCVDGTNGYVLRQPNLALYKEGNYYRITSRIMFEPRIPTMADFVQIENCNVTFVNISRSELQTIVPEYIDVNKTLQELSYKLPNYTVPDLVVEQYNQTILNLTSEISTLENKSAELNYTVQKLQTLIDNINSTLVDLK

SARS-CoV-1 spike protein = SARS-CoV-1 spike protein (SARS-CoV-1, UniProt P59594 14-1195)
MERS spike protein = target: T2, MERS spike protein (MERS-CoV, UniProt K9N5Q8 18-1296)
T2 chain: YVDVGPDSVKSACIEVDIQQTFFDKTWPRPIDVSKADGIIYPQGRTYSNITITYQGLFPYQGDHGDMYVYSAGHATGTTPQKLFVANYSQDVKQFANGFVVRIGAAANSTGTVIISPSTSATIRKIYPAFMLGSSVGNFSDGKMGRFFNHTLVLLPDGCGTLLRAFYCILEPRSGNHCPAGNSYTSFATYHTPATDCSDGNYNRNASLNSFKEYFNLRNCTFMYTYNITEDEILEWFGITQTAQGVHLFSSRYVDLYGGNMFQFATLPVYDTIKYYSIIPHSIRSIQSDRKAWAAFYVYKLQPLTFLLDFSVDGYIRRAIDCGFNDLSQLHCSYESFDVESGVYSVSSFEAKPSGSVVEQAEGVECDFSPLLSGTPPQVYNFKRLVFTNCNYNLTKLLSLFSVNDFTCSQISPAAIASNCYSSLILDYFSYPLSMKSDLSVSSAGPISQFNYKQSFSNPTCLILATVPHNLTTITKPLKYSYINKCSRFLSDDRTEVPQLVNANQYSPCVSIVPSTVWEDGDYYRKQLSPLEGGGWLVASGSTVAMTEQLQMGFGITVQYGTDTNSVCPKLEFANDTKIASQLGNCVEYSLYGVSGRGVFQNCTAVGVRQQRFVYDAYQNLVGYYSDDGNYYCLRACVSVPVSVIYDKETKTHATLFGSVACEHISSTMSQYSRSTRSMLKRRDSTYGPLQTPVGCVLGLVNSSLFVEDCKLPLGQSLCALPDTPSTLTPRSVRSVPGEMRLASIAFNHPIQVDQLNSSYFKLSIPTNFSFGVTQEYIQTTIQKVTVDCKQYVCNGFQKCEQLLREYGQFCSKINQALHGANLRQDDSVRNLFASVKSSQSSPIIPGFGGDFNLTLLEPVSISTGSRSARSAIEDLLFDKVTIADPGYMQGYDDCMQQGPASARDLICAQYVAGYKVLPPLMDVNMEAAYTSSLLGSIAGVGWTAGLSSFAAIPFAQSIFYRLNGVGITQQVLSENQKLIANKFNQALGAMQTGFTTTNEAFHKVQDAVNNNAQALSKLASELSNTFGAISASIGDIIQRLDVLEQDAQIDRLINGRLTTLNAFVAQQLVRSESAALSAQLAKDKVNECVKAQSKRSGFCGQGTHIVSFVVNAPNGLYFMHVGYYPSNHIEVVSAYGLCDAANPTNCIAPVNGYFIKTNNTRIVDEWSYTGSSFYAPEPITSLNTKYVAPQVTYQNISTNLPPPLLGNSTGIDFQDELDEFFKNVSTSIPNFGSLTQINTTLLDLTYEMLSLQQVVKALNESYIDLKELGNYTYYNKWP

B1: 2-G20-A (antibody, V domains shown)
VH: EVQLQQSGPELVKPGASVKMSCKASGYTFPSYVLHWVKQKPGQGLEWIGYIYPYNDGTNYNEKFKGKATLTSDKSSSTAYMELSSLTSEDSAVYYCARGDYGDSAWFPYWGQGTLVTVSA
VL: DIVLTQSPASLAVSLGQRATISCRASKSVSTSGYSYMHWYQQKPGQPPKLLIYLASNLKSGVPARFSGGGSGTDFTLNIHPVEEEDAATYYCQLSRELPWTFGGGTKLEIK
- EC50 [1]: 1.83 nM
- EC50 (HCoV229E spike protein): 0.1 nM
- EC50 (SARS-CoV-1 spike protein): 1.44 nM
- EC50 (MERS spike protein): 8.71 nM

B2: 1-L10-A (antibody, V domains shown)
VH: EVKLEESGGGLVQPGGSMKLSCVASGFTFNNYWMNWVRQSPEKGLEWVAQMRLKSDNYATHYAESVKGRFTISRDDSKSSVYLQMNNLRAEDTGIYYCIEGYWTYWGQGTLVTVSA
VL: QIVLTQSPAIMSASLGERVTMTCTASSSVSSSYLHWYQQKPGSSPKLWIYSTSNLASGVPARFSGNGSGTSYSLTISSMEAEDAATYYCLQYHRSPPYTFGGGTKLEIK
- EC50 [1]: 111 nM
- EC50 (HCoV229E spike protein): 0.12 nM
- EC50 (SARS-CoV-1 spike protein): 5.27 nM
- EC50 (MERS spike protein): 3.47 nM

B3: 7-D7-A (antibody, V domains shown)
VH: QVQLKESGPGLVAPSQSLSITCTVSGFSLTSYAISWVRQPPGKGLEWLGVIWPGGGTNYNSALKSRLSISKDNSKSQVFLKMNSLQTDDTAKYYCARTGYYFDYWGQGTTLTVSS
VL: QLILTQSPAIMSASPGEKVTMTCSASLSVNYMYWFQQKPGTSPKRWIHDTSKLASGVPARFSGSGSGTSYSLTISSMEAEDAATYYCQQWSSNPPMYTFGGGTKLEIK
- EC50 [1]: 0.72 nM
- EC50 (HCoV229E spike protein): 0.13 nM
- EC50 (SARS-CoV-1 spike protein): 3.05 nM
- EC50 (MERS spike protein): 0.9 nM

B4: 8-A17-A (antibody, V domains shown)
VH: QVQLKESGPGLVAPSQSLSITCTVSGFSLTSYAISWVRQPPGKGLEWLGVVWPGGGTNYNSALKSRLSINKDNSKSQVFLKMNSLQTDDTGRYYCARTGYHFDYWGQGTTLTVSS
VL: QIVLTQSPAIMSASPGEKVTMTCSVSSSVSYMHWYQQKSGTSPKRWIYDTSKLASGVPARFSGSGSGTSYSLTISSMEAEDAATYYCQQWSSNPPMYTFGGGTKLEIK
- EC50 [1]: 0.27 nM
- EC50 (HCoV229E spike protein): 0.01 nM
- EC50 (SARS-CoV-1 spike protein): 0.36 nM
- EC50 (MERS spike protein): 0.49 nM

B5: 9-F6-A (antibody, V domains shown)
VH: EVQLQQSGPELVKPGASVKMSCKASGYTFTSYIMHWVKQKPGQGLEWIGYILPYNDGTKYNEKFKGKATLTSDKSSSTAYMELRSLTSEDSAVYYCARWGYSNFLDSWGQGTTLTVSS
VL: DIQMTQTTSSLSASLGDRVTISCRASQDINNYLNWYQQKPDGTVKLLIYYTSRLHSGVPSRFSGSGSGTDYSLTIRNLEQEDIATYFCQQGNTLPPTFGGGTKLEIK
- EC50 [1]: 0.59 nM
- EC50 (HCoV229E spike protein): 0.03 nM
- EC50 (SARS-CoV-1 spike protein): 0.46 nM
- EC50 (MERS spike protein): 1.67 nM

B6: 1-B11-A (antibody, V domains shown)
VH: QVQLQQSGPELVKPGASVKISCKASGYTFTDHYINWVKQRPGQGLEWIGWIFPGSGSTYYNEQFKGKATLTVDKSSNTAYMLLSSLTSEDSAVYFCARSGGLRLGFAYWGQGTLVTVSA
VL: DIQMTQTTSSLSASLGDRVTISCRASQDISNYLNWYQQKPDGTVKLLIYYTSRLHSGVPSRFSGSGSGTDYSLTISNLEQEDISTYFCQQVNTLPYTFGGGTKLEIK
- EC50 [1]: 10.7 nM
- EC50 (SARS-CoV-1 spike protein): 0.55 nM
- EC50 (MERS spike protein): 0.63 nM

B7: 6-O12-A (antibody, V domains shown)
VH: QVQLQQPGTELVKPGASVKLSCKASGYTFTSYWMHWVKQRPGQGLEWIGNINPSNGGTNYNEKFRSKATLTVDKSSSTAYMQLSSLTSEDSAVYYCARLGWFLPLGSWGQGTTLTVSS
VL: QIVLTQSPAIMSASLGEVITLTCSASSSVSYMHWYQQKSGTSPKLLIYSTSNLASGVPSRFSGSGSGTFYSLTISSVEAEDAADYYCHQWSGYMYTFGGGTKLEIK
- EC50 [1]: 0.39 nM
- EC50 (HCoV229E spike protein): 0.15 nM
- EC50 (SARS-CoV-1 spike protein): 0.24 nM
- EC50 (MERS spike protein): 0.25 nM
